The record followed here is IntAct's records for PubMed 35512704.

The labels stand for the following.
B1: Speckle-type POZ protein (Homo sapiens), O43791 (parent)
chain: MSRVPSPPPPAEMSSGPVAESWCYTQIKVVKFSYMWTINNFSFCREEMGEVIKSSTFSSGANDKLKWCLRVNPKGLDEESKDYLSLYLLLVSCPKSEVRAKFKFSILNAKGEETKAMESQRAYRFVQGKDWGFKKFIRRDFLLDEANGLLPDDKLTLFCEVSVVQDSVNISGQNTMNMVKVPECRLADELGGLWENSRFTDCCLCVAGQEFQAHKAILAARSPVFSAMFEHEMEESKKNRVEINDVEPEVFKEMMCFIYTGKAPNLDKMADDLLAAADKYALERLKVMCEDALCSNLSVENAAEILILADLHSADQLKTQAVDFINYHASDVLETSGWKSMVVSHPHLVAEAYRSLASAQCPFLGPPRKRLKQS
partner: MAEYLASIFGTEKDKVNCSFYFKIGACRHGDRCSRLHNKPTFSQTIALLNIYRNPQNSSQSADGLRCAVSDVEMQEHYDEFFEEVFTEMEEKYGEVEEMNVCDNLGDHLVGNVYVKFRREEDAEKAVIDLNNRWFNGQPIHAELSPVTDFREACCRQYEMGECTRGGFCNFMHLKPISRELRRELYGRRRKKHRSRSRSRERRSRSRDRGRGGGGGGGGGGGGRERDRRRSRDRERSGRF
B2: Speckle-type POZ protein (Homo sapiens), O43791 (parent)
chain: B1 chain
partner: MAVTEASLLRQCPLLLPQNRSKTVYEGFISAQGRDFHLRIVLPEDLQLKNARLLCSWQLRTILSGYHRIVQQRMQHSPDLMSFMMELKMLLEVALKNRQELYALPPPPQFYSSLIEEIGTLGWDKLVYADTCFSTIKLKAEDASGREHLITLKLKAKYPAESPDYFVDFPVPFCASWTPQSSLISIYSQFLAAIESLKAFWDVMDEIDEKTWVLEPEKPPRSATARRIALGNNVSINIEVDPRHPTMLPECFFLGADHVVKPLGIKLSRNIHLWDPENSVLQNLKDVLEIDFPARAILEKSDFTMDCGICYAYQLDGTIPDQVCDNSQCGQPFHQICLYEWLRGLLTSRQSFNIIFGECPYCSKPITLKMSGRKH
B3: Speckle-type POZ protein (Homo sapiens), O43791 (parent)
chain: B1 chain
partner: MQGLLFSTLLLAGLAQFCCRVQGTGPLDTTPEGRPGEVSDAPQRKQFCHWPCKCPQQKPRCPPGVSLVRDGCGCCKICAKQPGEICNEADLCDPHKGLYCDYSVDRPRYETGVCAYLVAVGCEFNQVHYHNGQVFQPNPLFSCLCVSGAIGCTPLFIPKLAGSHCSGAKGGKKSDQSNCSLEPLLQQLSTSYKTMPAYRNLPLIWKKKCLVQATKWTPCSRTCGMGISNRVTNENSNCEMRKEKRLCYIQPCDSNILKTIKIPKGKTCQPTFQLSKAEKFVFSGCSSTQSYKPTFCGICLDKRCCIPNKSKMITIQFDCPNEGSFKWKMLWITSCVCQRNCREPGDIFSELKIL
B4: Speckle-type POZ protein (Homo sapiens), O43791 (parent)
chain: B1 chain
partner: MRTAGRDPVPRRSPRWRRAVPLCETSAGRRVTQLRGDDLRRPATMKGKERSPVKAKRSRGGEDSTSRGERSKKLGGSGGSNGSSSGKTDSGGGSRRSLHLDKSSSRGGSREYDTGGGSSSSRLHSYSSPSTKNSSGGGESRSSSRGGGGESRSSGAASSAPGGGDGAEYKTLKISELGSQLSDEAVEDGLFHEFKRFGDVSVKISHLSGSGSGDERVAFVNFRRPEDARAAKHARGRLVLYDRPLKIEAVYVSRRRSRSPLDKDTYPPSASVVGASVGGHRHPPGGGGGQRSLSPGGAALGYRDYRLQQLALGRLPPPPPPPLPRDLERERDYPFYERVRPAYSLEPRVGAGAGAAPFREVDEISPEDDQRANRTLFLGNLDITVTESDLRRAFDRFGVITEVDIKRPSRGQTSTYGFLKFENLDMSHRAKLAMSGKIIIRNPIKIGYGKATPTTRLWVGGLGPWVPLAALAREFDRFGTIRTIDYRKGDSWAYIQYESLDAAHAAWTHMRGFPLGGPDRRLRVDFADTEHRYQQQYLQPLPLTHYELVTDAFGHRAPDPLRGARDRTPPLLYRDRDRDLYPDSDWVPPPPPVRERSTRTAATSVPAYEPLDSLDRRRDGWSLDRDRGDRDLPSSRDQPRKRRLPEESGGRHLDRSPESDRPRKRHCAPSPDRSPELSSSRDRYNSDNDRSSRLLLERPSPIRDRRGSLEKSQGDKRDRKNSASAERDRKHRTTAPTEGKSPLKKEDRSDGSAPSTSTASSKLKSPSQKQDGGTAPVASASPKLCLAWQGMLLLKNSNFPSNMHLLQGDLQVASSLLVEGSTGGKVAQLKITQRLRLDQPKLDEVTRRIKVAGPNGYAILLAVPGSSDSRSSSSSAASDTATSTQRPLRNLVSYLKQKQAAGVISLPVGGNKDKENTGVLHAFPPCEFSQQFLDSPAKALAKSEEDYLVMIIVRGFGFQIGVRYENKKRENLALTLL
B5: Speckle-type POZ protein (Homo sapiens), O43791 (parent)
chain: B1 chain
partner: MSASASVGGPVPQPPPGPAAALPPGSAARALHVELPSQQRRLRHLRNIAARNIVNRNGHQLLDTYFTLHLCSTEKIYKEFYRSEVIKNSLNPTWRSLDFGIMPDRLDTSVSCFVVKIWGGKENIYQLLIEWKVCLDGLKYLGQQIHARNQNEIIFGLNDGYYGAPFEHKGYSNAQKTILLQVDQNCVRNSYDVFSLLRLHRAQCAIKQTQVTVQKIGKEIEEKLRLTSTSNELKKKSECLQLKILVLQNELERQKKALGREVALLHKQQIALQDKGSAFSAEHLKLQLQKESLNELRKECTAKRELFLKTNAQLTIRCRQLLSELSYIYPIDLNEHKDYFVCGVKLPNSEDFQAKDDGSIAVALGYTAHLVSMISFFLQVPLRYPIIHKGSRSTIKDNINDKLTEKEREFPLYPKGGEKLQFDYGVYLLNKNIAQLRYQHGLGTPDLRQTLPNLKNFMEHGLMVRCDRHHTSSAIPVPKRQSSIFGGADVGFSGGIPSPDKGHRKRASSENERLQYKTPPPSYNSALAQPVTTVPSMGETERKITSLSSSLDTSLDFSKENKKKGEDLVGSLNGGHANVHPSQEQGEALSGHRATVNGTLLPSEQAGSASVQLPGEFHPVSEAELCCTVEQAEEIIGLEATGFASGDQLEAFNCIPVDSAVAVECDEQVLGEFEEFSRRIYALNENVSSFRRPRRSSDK

Variants of B1 are the subject of the first test. The conditions noted are these: with U2AF1, Q01081.
Take F133L: the “effect of a mutation on the interaction” value is recorded as “with no effect”.

The variants in the next test derive from B1. The conditions noted are these: with U2AF1, Q01081. The source holds these as a separate data set.
Regarding F133V, the “effect of a mutation on the interaction” value is “with no effect”.

In a further test the parent is B1. The conditions noted are these: with U2AF1, Q01081. The source holds these as a separate data set.
As to Y87C, the “effect of a mutation on the interaction” value was “with no effect”.

A further test covers variants of B1. Particulars: with U2AF1, Q01081. This is another data set of the same source.
On to F102C, for which the “effect of a mutation on the interaction” value is given as “with no effect”.

The variants in a further test derive from B2. Particulars: with fancl_human FANCL.
As for F133L, the “effect of a mutation on the interaction” value is “with no effect”.

In a further test the parent is B2. The conditions noted are these: with fancl_human FANCL. This is another data set of the same source.
For the variant Y87C, the “effect of a mutation on the interaction” value was “with no effect”.

Variants of B3 are the subject of another test. The conditions noted are these: with ccn6_human CCN6, O95389.
In the case of Y87C, the “effect of a mutation on the interaction” value is reported as “with no effect”.

Variants of B3 are the subject of the next test. The conditions noted are these: with ccn6_human CCN6, O95389. The source holds these as a separate data set.
F102C: the “effect of a mutation on the interaction” value is given as “with no effect”.

The variants in another test derive from B3. Particulars: with ccn6_human CCN6, O95389. The source holds these as a separate data set.
On to F133L, for which the “effect of a mutation on the interaction” value was “with no effect”.

The variants in another test derive from B3. Particulars: with ccn6_human CCN6, O95389. This is another data set of the same source.
For the variant F133V, the “effect of a mutation on the interaction” value was “with no effect”.

In a further test the parent is B4. Particulars: with rbm15_human RBM15, Q96T37.
Turning to F133V, the “effect of a mutation on the interaction” value is listed as “with no effect”.

The variants in another test derive from B4. Particulars: with rbm15_human RBM15, Q96T37. The source holds these as a separate data set.
Consider F133L, for which the “effect of a mutation on the interaction” value is “with no effect”.

The next test covers variants of B5. The conditions noted are these: with uvrag_human UVRAG.
Regarding F102C, the “effect of a mutation on the interaction” value was “with no effect”.

Another test covers variants of B5. The conditions noted are these: with uvrag_human UVRAG. The source holds these as a separate data set.
Consider F133L, for which the “effect of a mutation on the interaction” value is reported as “with no effect”.

Another test covers variants of B5. Particulars: with uvrag_human UVRAG. The source holds these as a separate data set.
Turning to F133V, the “effect of a mutation on the interaction” value is reported as “with no effect”.

The variants in the next test derive from B5. The conditions noted are these: with uvrag_human UVRAG. This is another data set of the same source.
For Y87C, the “effect of a mutation on the interaction” value is recorded as “with no effect”.
